From the supplement of paper PMC9112550, “Optimization of the antimicrobial peptide Bac7 by deep mutational scanning” (BMC Biology, 2022)

system: Escherichia coli TOP10; assay: shrunken log2 fold change of peptide-encoding DNA abundance (4.5 h post-induction vs induction); higher = less antimicrobial activity (less host growth inhibition); conditions: time post-induction: 4.5 h; library: site-saturation at positions 5, 18, 19, 20
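Further: peptides expressed intracellularly from a pBAD plasmid library in pooled LB shake-flask culture, induced with 0.3% L-arabinose, DNA abundance read by NGS, three biological replicates, DESeq2 with apeglm shrinkage.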

Sequence | shrunken log2 fold change
RRIRHRPPRLPRPRPRPPPRPRP | 1.25
RRIRGRPPRLPRPRPRPLFEPRP | 0.739
RRIRGRPPRLPRPRPRPHALPRP | 0.0818
RRIRWRPPRLPRPRPRPFNTPRP | -0.0751
RRIRSRPPRLPRPRPRPRNNPRP | -0.212
RRIRMRPPRLPRPRPRPRMIPRP | -0.0577
RRIRLRPPRLPRPRPRPICPPRP | 0.00212
RRIRWRPPRLPRPRPRPQENPRP | -0.0785
RRIRWRPPRLPRPRPRPFAAPRP | 0.862
RRIRERPPRLPRPRPRPVLYPRP | -0.00668
RRIRNRPPRLPRPRPRPNPMPRP | -0.0603
RRIRFRPPRLPRPRPRPSPFPRP | 0.0724
RRIRLRPPRLPRPRPRPFARPRP | -0.00783
RRIRNRPPRLPRPRPRPSRMPRP | -0.454
RRIRMRPPRLPRPRPRPKARPRP | 1.61
RRIRLRPPRLPRPRPRPKGSPRP | -0.0276
RRIRRRPPRLPRPRPRPPVWPRP | 0.328
RRIRIRPPRLPRPRPRPNIQPRP | -1.03
RRIRTRPPRLPRPRPRPYTHPRP | -0.338
RRIRFRPPRLPRPRPRPQLWPRP | 0.338
RRIRMRPPRLPRPRPRPHREPRP | 0.104
RRIRERPPRLPRPRPRPASFPRP | -0.285
RRIRKRPPRLPRPRPRPYQRPRP | -0.0062
RRIRFRPPRLPRPRPRPWLAPRP | 2.73
RRIRGRPPRLPRPRPRPLKTPRP | 0.58

Sequence | shrunken log2 fold change
RRIRERPPRLPRPRPRPCHMPRP | 0.0597
RRIRVRPPRLPRPRPRPVSFPRP | -0.126
RRIRYRPPRLPRPRPRPRDKPRP | -0.667
RRIRPRPPRLPRPRPRPRAAPRP | 0.611
RRIRNRPPRLPRPRPRPYVNPRP | -0.121
RRIRLRPPRLPRPRPRPHWRPRP | 0.147
RRIRDRPPRLPRPRPRPENCPRP | -0.0102
RRIRPRPPRLPRPRPRPFLPPRP | -0.0925
RRIRERPPRLPRPRPRPFSLPRP | -0.2
RRIRPRPPRLPRPRPRPEKSPRP | 0.264
RRIRERPPRLPRPRPRPVIEPRP | -0.201
RRIRCRPPRLPRPRPRPEWAPRP | 0.292
RRIRWRPPRLPRPRPRPDELPRP | 0.402
RRIRARPPRLPRPRPRPVCNPRP | 0.0721
RRIRGRPPRLPRPRPRPGDFPRP | 0.00388
RRIRHRPPRLPRPRPRPGFGPRP | 0.384
RRIRERPPRLPRPRPRPYYFPRP | -1.04
RRIRVRPPRLPRPRPRPVRMPRP | -0.0731
RRIRDRPPRLPRPRPRPQPPPRP | 0.424
RRIRERPPRLPRPRPRPPEAPRP | 0.192
RRIRLRPPRLPRPRPRPSKMPRP | -0.212
RRIRIRPPRLPRPRPRPASHPRP | -0.106
RRIRRRPPRLPRPRPRPWCHPRP | -0.0754
RRIRCRPPRLPRPRPRPCEHPRP | -0.328
RRIRQRPPRLPRPRPRPTMRPRP | 0.86

Sequence | shrunken log2 fold change
RRIRGRPPRLPRPRPRPGCQPRP | 1.17
RRIRCRPPRLPRPRPRPMDLPRP | -0.0384
RRIRSRPPRLPRPRPRPLERPRP | -0.0196
RRIRNRPPRLPRPRPRPHWAPRP | 0.13
RRIRWRPPRLPRPRPRPWRYPRP | -0.262
RRIRWRPPRLPRPRPRPHTQPRP | -0.56
RRIRGRPPRLPRPRPRPKPNPRP | 1.05
RRIRERPPRLPRPRPRPIEYPRP | -0.207
RRIRCRPPRLPRPRPRPKHMPRP | -0.25
RRIRQRPPRLPRPRPRPNHVPRP | 0.0349
RRIRQRPPRLPRPRPRPVCRPRP | 0.198
RRIRDRPPRLPRPRPRPFHWPRP | -0.0944
RRIRYRPPRLPRPRPRPFDCPRP | -0.0565
RRIRLRPPRLPRPRPRPEFFPRP | 0.02
RRIRHRPPRLPRPRPRPHVTPRP | -0.373
RRIRWRPPRLPRPRPRPIAIPRP | -0.347
RRIRPRPPRLPRPRPRPDYCPRP | -0.367
RRIRIRPPRLPRPRPRPDCNPRP | -0.164
RRIRLRPPRLPRPRPRPYPHPRP | -0.323
RRIRCRPPRLPRPRPRPFLYPRP | -0.513
RRIRRRPPRLPRPRPRPETSPRP | 0.4
RRIRKRPPRLPRPRPRPIHTPRP | 0.101
RRIRFRPPRLPRPRPRPEGEPRP | -0.0563
RRIRIRPPRLPRPRPRPQGYPRP | -0.0157
RRIRIRPPRLPRPRPRPDKQPRP | 0.0185

Sequence | shrunken log2 fold change
RRIRHRPPRLPRPRPRPEYWPRP | -0.0523
RRIRRRPPRLPRPRPRPCNHPRP | -0.011
RRIRWRPPRLPRPRPRPQERPRP | -0.0207
RRIRSRPPRLPRPRPRPEDDPRP | 0.744
RRIRFRPPRLPRPRPRPRHTPRP | -0.00169
RRIRMRPPRLPRPRPRPQYSPRP | 0.0353
RRIRSRPPRLPRPRPRPMTMPRP | -0.245
RRIRYRPPRLPRPRPRPCVQPRP | -0.236
RRIRMRPPRLPRPRPRPALSPRP | 0.539
RRIRRRPPRLPRPRPRPNVHPRP | -0.203
RRIRPRPPRLPRPRPRPRYIPRP | -0.602
RRIRQRPPRLPRPRPRPPMRPRP | 0.862
RRIRRRPPRLPRPRPRPNHTPRP | -0.306
RRIRSRPPRLPRPRPRPSWSPRP | -0.0102
RRIRVRPPRLPRPRPRPQQPPRP | 0.124
RRIRFRPPRLPRPRPRPSMLPRP | -0.47
RRIRQRPPRLPRPRPRPSKRPRP | -0.188
RRIRLRPPRLPRPRPRPYVRPRP | 0.0394
RRIRMRPPRLPRPRPRPRAPPRP | 1.18
RRIRWRPPRLPRPRPRPPVQPRP | 0.952
RRIRRRPPRLPRPRPRPPHRPRP | 1.36
RRIRTRPPRLPRPRPRPTITPRP | 0.184
RRIRTRPPRLPRPRPRPWNWPRP | 0.0309
RRIRLRPPRLPRPRPRPGAYPRP | -0.16
RRIRWRPPRLPRPRPRPYVRPRP | -0.0178

Sequence | shrunken log2 fold change
RRIRDRPPRLPRPRPRPNWIPRP | -0.389
RRIRPRPPRLPRPRPRPILFPRP | -0.124
RRIRTRPPRLPRPRPRPVTGPRP | -0.083
RRIRFRPPRLPRPRPRPGDFPRP | -0.209
RRIRSRPPRLPRPRPRPVETPRP | 0.00492
RRIRWRPPRLPRPRPRPIYEPRP | -0.355
RRIRYRPPRLPRPRPRPMWGPRP | 0.171
RRIRIRPPRLPRPRPRPIWPPRP | 0.155
RRIRKRPPRLPRPRPRPKVNPRP | 0.0581
RRIRYRPPRLPRPRPRPKKRPRP | -0.11
RRIRARPPRLPRPRPRPYEMPRP | -0.0385
RRIRYRPPRLPRPRPRPNHMPRP | -0.611
RRIRQRPPRLPRPRPRPKKFPRP | -0.097
RRIRYRPPRLPRPRPRPKHGPRP | -0.413
RRIRPRPPRLPRPRPRPCDVPRP | -0.155
RRIRHRPPRLPRPRPRPAKWPRP | -0.0376
RRIRMRPPRLPRPRPRPRHYPRP | -0.0487
RRIRTRPPRLPRPRPRPLSSPRP | -0.0339
RRIRCRPPRLPRPRPRPCVGPRP | -0.0691
RRIRQRPPRLPRPRPRPYVSPRP | -0.0823
RRIRNRPPRLPRPRPRPCHVPRP | 0.0112
RRIRDRPPRLPRPRPRPNKGPRP | -0.00129
RRIRMRPPRLPRPRPRPQSRPRP | 0.328
RRIRPRPPRLPRPRPRPNGVPRP | -0.0233
RRIRGRPPRLPRPRPRPHHFPRP | -0.0789

Sequence | shrunken log2 fold change
RRIRLRPPRLPRPRPRPATLPRP | -0.12
RRIRGRPPRLPRPRPRPNCRPRP | 0.0979
RRIRQRPPRLPRPRPRPSEVPRP | -0.022
RRIRARPPRLPRPRPRPVIGPRP | 0.535
RRIRMRPPRLPRPRPRPMDNPRP | 0.0672
RRIRGRPPRLPRPRPRPLIYPRP | 0.105
RRIRRRPPRLPRPRPRPKGEPRP | 0.0115
RRIRFRPPRLPRPRPRPGRHPRP | 0.0867
RRIRVRPPRLPRPRPRPLPQPRP | 0.216
RRIRERPPRLPRPRPRPFDEPRP | -0.433
RRIRFRPPRLPRPRPRPCLDPRP | -0.35
RRIRVRPPRLPRPRPRPPRHPRP | 0.252
RRIRTRPPRLPRPRPRPYDRPRP | -0.221
RRIRERPPRLPRPRPRPYEEPRP | -0.636
RRIRGRPPRLPRPRPRPKCHPRP | 0.78
RRIRCRPPRLPRPRPRPWDQPRP | 0.0182
RRIRRRPPRLPRPRPRPEAGPRP | 0.731
RRIRRRPPRLPRPRPRPVYAPRP | 0.21
RRIRVRPPRLPRPRPRPMICPRP | -0.0606
RRIRNRPPRLPRPRPRPEEWPRP | 0.108
RRIRDRPPRLPRPRPRPSQYPRP | -0.697
RRIRHRPPRLPRPRPRPSQYPRP | -0.372
RRIRQRPPRLPRPRPRPDKNPRP | -0.635
RRIRDRPPRLPRPRPRPTWVPRP | 0.323
RRIRGRPPRLPRPRPRPATQPRP | 0.631
